Source: patent US20250297007A1 (published 2025)

T1: recombinant protein TCRVB 6-5 (human, biotinylated (captured on a Biotin CAP chip); site not stated)
T1 construct: also called TCRVβ 6-5; TCRβ V6-5*01
T1 TCR beta: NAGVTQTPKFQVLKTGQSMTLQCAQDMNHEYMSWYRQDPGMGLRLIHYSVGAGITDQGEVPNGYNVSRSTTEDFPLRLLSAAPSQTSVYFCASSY

B1: A-H.52 (scFv)
scFv: QVQLVQSGAEVKKPGSSVKVSCKASGYSFTLGYIHWVRQAPGQGLEWMGWFFPGSGNIKYNEKFKGRVTITADTSTSTAYMELSSLRSEDTAVYYCAGSYYSYDVLDYWGQGTTVTVSSGGGGSGGGGSGGGGSGGGGSDIQMTQSPSFLSASVGDRVTITCKASQNVGINVVWHQQKPGKAPKALIYSSSHRYSGVPSRFSGSGSGTEFTLTISSLQPEDFATYFCQQFKSYPLTFGQGTKLEIK
notes: Phage clone, stated to be a monovalent scFv with two mutations in CDRH1; also called Antibody A-H.52
B2: A-H.53 (scFv)
scFv: QVQLVQSGAEVKKPGSSVKVSCKASGYSFRLTYIHWVRQAPGQGLEWMGWFFPGSGNIKYNEKFKGRVTITADTSTSTAYMELSSLRSEDTAVYYCAGSYYSYDVLDYWGQGTTVTVSSGGGGSGGGGSGGGGSGGGGSDIQMTQSPSFLSASVGDRVTITCKASQNVGINVVWHQQKPGKAPKALIYSSSHRYSGVPSRFSGSGSGTEFTLTISSLQPEDFATYFCQQFKSYPLTFGQGTKLEIK
notes: Phage clone; also called Antibody A-H.53
B3: A-H.54 (scFv)
scFv: QVQLVQSGAEVKKPGSSVKVSCKASGYSFHNWYIHWVRQAPGQGLEWMGWFFPGSGNIKYNEKFKGRVTITADTSTSTAYMELSSLRSEDTAVYYCAGSYYSYDVLDYWGQGTTVTVSSGGGGSGGGGSGGGGSGGGGSDIQMTQSPSFLSASVGDRVTITCKASQNVGINVVWHQQKPGKAPKALIYSSSHRYSGVPSRFSGSGSGTEFTLTISSLQPEDFATYFCQQFKSYPLTFGQGTKLEIK
notes: Phage clone; also called Antibody A-H.54
B4: BJM0277 (antibody, V domains shown)
VH: QVQLVQSGAEVKKPGSSVKVSCKASGYSFTTYYIHWVRQAPGQGLEWMGWFFPGSGNIKYNEKFKGRVTITADTSTSTAYMELSSLRSEDTAVYYCAGSYYSYDVLDYWGQGTTVTVSS
VL: DIQMTQSPSFLSASVGDRVTITCKASQNVGINVVWHQQKPGKAPKALIYSSSHRYSGVPSRFSGSGSGTEFTLTISSLQPEDFATYFCQQFKSYPLTFGQGTKLEIKR

Target: T1, recombinant protein TCRVB 6-5
Test: SPR-type chip assay; TCRVB 6-5 captured on Biotin CAP Series S chip, construct as analyte, 1:1 binding model, 25C
Description: TCRVB 6-5 at 5 ug/mL was immobilized on a Biotin CAP Series S Sensor Chip to 60 RU. A-H.52 was diluted to 50 nM and then serially diluted two fold Association was 120 seconds, dissociation was 300 seconds. This assay was run in 1×HBS-EP+ Buffer pH 7.4 and 25C. The data was fit using a 1:1 binding model. A-H.52 is a phage clones and is a monovalent scFv. A-H.52 has two mutations on CDRH1.
(§1) TCRVB 6-5 at 5 ug/mL was immobilized on a Biotin CAP Series S Sensor Chip to 60 RU. A-H.53 was diluted to 50 nM and then serially diluted two fold. Association was 120 seconds, dissociation was 300 seconds. This assay was run in 1×HBS-EP+ Buffer pH 7.4 and 25C. The data was fit using a 1:1 binding model. A-H.53 (phage clone) affinity is in the pM range (Table 17).
as §1, with “A-H.54” for “A-H.53”, “model.” for “model. A-H.53 (phage clone) affinity is in the pM range (Table 17).”

**Q.** Which Kd does the source give for B1 here?
**A.** The Kd was 1.76 nM.

**Q.** For B2, which Kd is on record?
**A.** The Kd was 0.165 nM.

**Q.** With B3 as the binder, how does the Kd read?
**A.** The Kd was 2.22 nM.

**Q.** Which Kd does the source give for B4 here?
**A.** Its Kd is 35 nM.
